One block for each binder: values may come before it.
Assays:
[1] = target: T1, recombinant soluble human HLA-G β2M MHC class I complex, trimer (human); assay: competition ELISA, antibody 44 nM; competitor coated ILT2-Fc
T1 construct: Non-biotinylated; also called HLA-G Trimer; trimeric HLA-G
Method: The ELISA was set up by coating the Fc tagged ILT2 and ILT4 respectively to Maxisorp microtiter plates. After incubation and washing steps, the respective antibodies were added at a concentration of 100 nM. Soluble His tagged monomeric, dimeric or trimeric HLA-G was added to the wells. After incubation and washing steps, detection of bound receptor was carried out by anti-His-antibody-POD conjugates.
The above tables summarize the blocking of interaction between rec. HLA-G proteins (monomer and oligomers) to its receptors ILT2 and ILT4 by the described HLAG antibodies at a concentration of 110 nM (*HLAG-0090 was tested at a concentration of 44 nM) as assessed by ELISA. Shown are the % inhibitions of the HLA-G/receptor interaction (for ILT2 and ILT4). The less pronounced ILT4 inhibition depends on the major β2M dependent interaction of this receptor.

[2] = target: T2, modified human HLA-G β2M MHC class I complex (HLA-G specific amino acids replaced by HLA-A consensus amino … (human)); assay: ELISA, biotinylated degrafted HLA-G on streptavidin plate (no EC50; Max. OD 0.15)
T2 construct: Counter antigen: single-chain fusion of peptide, beta-2 microglobulin and HLA-G in which 14 HLA-G unique surface positions were mutated to an HLA-A consensus; also called degrafted HLA-G; HLA-G-0007
Method: Streptavidin coated plates (Nunc, MicroCoat #11974998001) were coated with 25 μl/well biotinylated human degrafted HLA-G at a concentration of 250 ng/ml and incubated at 4° C. overnight. After washing (3×90 μl/well with PBST-buffer) 25 μl anti-HLA-G samples (1:3 dilution in OSEP buffer) or rat serum (1:600 dilution in OSEP) were added and incubated 1 h at RT. After washing (3×90 μl/well with PBST-buffer) 25 μl/well of a mixture of goat-anti-rat IgG1-POD (Bethyl #A110-106P), goat-anti-rat IgG2a-POD (Bethyl #A110-109P) and goat-anti-rat IgG2b-POD (Bethyl #A110-111P) 1:10000 in OSEP was added and incubated at RT for 1 h on shaker. After washing (6×90 μl/well with PBST-buffer) 25 μl/well TMB substrate (Roche, 11835033001) was added and incubated until OD 2-3. Measurement took place on a Tecan Safire 2 instrument at 370/492 nm.

% inhibition of ILT2 binding [1]: 99%
B1: HLA-G-0090 (antibody, V domains shown)
VH: QVQLQQSGPGLLKPSQTLSLTCAISGDSVSSNRAAWNWIRQSPSRGLEWLGRTYYRSKWYNDYAVSVQGRITLIPDTSKNQFSLRLNSVTPEDTAVYYCASVRAVAPFDYWGQGVLVTVSS
VL: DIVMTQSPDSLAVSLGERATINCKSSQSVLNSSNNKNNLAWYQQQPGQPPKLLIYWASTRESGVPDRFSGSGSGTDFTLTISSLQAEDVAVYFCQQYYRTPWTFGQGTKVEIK
notes: Human antibody from humanized OmniRat (OMT) rats

binding result [2]: no binding
B2: HLA-G-0041 (antibody, V domains shown)
VH: EVQLLESGGGLVQPGGSLRLSCAASGFTFSTYGMSWVRQAPGKGLEWVSVISGGGVSTYYADSVKGRFTISRDNSKNTLYLQMNRLRAEDTAVYYCAKDGSYNYGYGDYFDYWGQGTLVTVSS
VL: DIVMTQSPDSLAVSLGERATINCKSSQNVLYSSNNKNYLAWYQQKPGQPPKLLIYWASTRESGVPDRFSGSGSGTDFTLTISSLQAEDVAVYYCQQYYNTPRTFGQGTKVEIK
notes: as for B1

Reference: patent US20250051455A1 (Hoffmann-La Roche, published 2025)
